Data on 25 molecules can be found in US20110064751A1 (Hoffmann-La Roche, published 2011).

Changes are numbered by the printed parent chain.

To fix the notation:
B1: 29B11 Fab (Fab, V domains shown)
VH: EVQLLESGGGLVQPGGSLRLSCAASGFTFSSYAMSWVRQAPGKGLEWVSAIIGSGGITYYADSVKGRFTISRDNSKNTLYLQMNSLRAEDTAVYYCAKGWFGGFNYWGQGTLVTVSS
VL: EIVLTQSPGTLSLSPGERATLSCRASQSVTSSYLAWYQQKPGQAPRLLINVGSRRATGIPDRFSGSGSGTDFTLTISRLEPEDFAVYYCQQGIMLPPTFGQGTKVEIK
notes: also called clone 29B11
B2: 23C10 Fab (Fab, V domains shown)
VH: B1 VH with Y32S, I52S, G53T, S54N, G56N, I57Y, F101L, G103N, N105D
VL: B1 VL with T30S, S31R, N50I, V51G, G52A, R54T, I93Q, M94V, L95I
notes: also called clone 23C10
B3: 28H1 Fab (Fab, V domains shown)
VH: EVQLLESGGGLVQPGGSLRLSCAASGFTFSSHAMSWVRQAPGKGLEWVSAIWASGEQYYADSVKGRFTISRDNSKNTLYLQMNSLRAEDTAVYYCAKGWLGNFDYWGQGTLVTVSS
VL: B1 VL with T30S, S31R, N50I, V51G, G52A, R54T, I93Q, M94V, L95I
notes: also called clone 28H1
B4: O2D7 Fab (Fab, V domains shown)
VH: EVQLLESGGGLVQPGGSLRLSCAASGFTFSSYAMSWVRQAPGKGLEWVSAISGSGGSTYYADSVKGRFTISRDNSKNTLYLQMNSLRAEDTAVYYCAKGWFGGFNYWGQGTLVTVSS
VL: B1 VL with I59T, G92A
notes: also called clone O2D7
B5: 14B3 Fab (Fab, V domains shown)
VH: B1 VH with I52L, G53A, G56A
VL: B1 VL
notes: also called clone 14B3
B6: 22A3 Fab (Fab, V domains shown)
VH: B1 VH with G56S
VL: B1 VL
notes: also called clone 22A3
B7: O3C9 Fab (Fab, V domains shown)
VH: B1 VH with Y32F, A40S, G56S, I57N
VL: B1 VL
notes: also called clone O3C9
B8: 19G1 Fab (Fab, V domains shown)
VH: B1 VH with G53S, I57L
VL: B1 VL
notes: also called clone 19G1
B9: 4B9 Fab (Fab, V domains shown)
VH: B1 VH with G56A, I57S
VL: B1 VL
notes: also called clone 4B9
B10: 16F8 Fab (Fab, V domains shown)
VH: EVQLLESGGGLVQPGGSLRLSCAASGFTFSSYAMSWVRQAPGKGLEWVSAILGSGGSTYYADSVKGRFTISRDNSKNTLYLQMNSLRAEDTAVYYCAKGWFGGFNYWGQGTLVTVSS
VL: B1 VL
notes: also called clone 16F8
B11: 16F1 Fab (Fab, V domains shown)
VH: B1 VH with A50G
VL: B1 VL
notes: also called clone 16F1
B12: 5F1 Fab (Fab, V domains shown)
VH: B1 VH with G53S, G56A, I57S
VL: B1 VL
notes: also called clone 5F1
B13: 5B8 Fab (Fab, V domains shown)
VH: B1 VH with I52W, S54G, G56R, I57S
VL: B1 VL
notes: also called clone 5B8
B14: 20G8 Fab (Fab, V domains shown)
VH: B1 VH with G56S, I57R
VL: B1 VL
notes: also called clone 20G8
B15: F16 IgG (antibody, V domains shown)
VH: EVQLLESGGGLVQPGGSLRLSCAASGFTFSRYGMSWVRQAPGKGLEWVSAISGSGGSTYYADSVKGRFTISRDNSKNTLYLQMNSLRAEDTAVYYCAKAHNAFDYWGQGTLVTVSS
VL: SSELTQDPAVSVALGQTVRITCQGDSLRSYYASWYQQKPGQAPVLVIYGKNNRPSGIPDRFSGSSSGNTASLTITGAQAEDEADYYCNSSVYTMPPVVFGGGTKLTVL
notes: The light chain entry is named generally (F16, light chain); also called the IgG molecule; copies: 2 + 2
B16: F16 Fab fragment (Fab, V domains shown)
VH: B15 VH
VL: SSELTQDPAVSVALGQTVRITCQGDSLRSYYASWYQQKPGQAPVLVIYGKNNRPSGIPDRFSGSSSGNTASLTITGAQAEDEADYYCNSSVYTMPPVVFGGGTKLTVLG
notes: also called monovalent Fab fragment of F16
B17: 2B10_6A12 Fab (Fab, V domains shown)
VH: QVQLVQSGAEVKKPGSSVKVSCKASGGTFSSYAISWVRQAPGQGLEWMGVIIPILGTANYAQKFQGRVTITADKSTSTAYMELSSLRSEDTAVYYCARLYGYAYYGAFDYWGQGTTVTVSS
VL: DIQMTQSPSSLSASVGDRVTITCRASQGIRNDLGWYQQKPGKAPKRLIYAASSLQSGVPSRFSGSGSGTEFTLTISSLQPEDFATYYCLQNGLQPATFGQGTKVEIK
notes: also called clone 2B10-6A12
B18: 2B10_C3B6 Fab (Fab, V domains shown)
VH: B17 VH with V50A, T57I
VL: B17 VL
notes: also called clone 2B10_C3B6
B19: 2B10_6H10 Fab (Fab, V domains shown)
VH: B17 VH with V50G, L55F
VL: B17 VL with D32V, Y49Q, S52T, S65G
notes: also called clone 2B10-6H10
B20: 2B10_O1F7 Fab (Fab, V domains shown)
VH: B17 VH with V50G, L55F
VL: B17 VL with D32V, A50D, S65G
notes: also called clone 2B10_O1F7
B21: 2B10_C3A6 Fab (Fab, V domains shown)
VH: B17 VH with V50G, L55F
VL: B17 VL with D32V, A50D, A51S, S65G
notes: also called clone 2B10_C3A6
B22: 2B10_O7D8 Fab (Fab, V domains shown)
VH: B17 VH with V50G, L55F
VL: B17 VL with G28S, D32V, A50D, A51V, S65G
notes: also called clone 2B10_O7D8
B23: 3F2 Fab (Fab, V domains shown)
VH: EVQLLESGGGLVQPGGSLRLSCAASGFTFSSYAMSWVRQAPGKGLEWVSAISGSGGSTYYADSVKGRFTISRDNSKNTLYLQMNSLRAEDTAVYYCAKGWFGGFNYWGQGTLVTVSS
VL: B1 VL with S14Y
notes: Fab fragment; also called clone 3F2
B24: 4G8 Fab (Fab, V domains shown)
VH: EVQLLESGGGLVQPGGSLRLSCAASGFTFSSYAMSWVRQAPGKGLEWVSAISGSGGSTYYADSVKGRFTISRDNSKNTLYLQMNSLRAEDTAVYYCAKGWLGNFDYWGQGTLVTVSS
VL: B1 VL with T30S, S31R, N50I, V51G, G52A, R54T, I93Q, M94V, L95I
notes: Fab fragment; also called clone 4G8
B25: 4B3 Fab (Fab, V domains shown)
VH: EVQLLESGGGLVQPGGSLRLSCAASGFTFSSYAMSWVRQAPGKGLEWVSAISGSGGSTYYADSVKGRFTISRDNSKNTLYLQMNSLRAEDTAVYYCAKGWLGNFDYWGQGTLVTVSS
VL: B1 VL with T30S, S32N, N50Y, V51G, G52A, S53Y, R54I, I93Q, M94V, L95I
notes: Fab fragment; also called clone 4B3

For one test, the target named is T1, DPPIV expressed on HEK293 or CHO cells (Homo sapiens (Human), UniProt P27487 1-766).
T1 construct: also called close homologue of FAP
Description: binding to DPPIV-expressing HEK293 or CHO cells.
For the molecule B1, the binding result is “no binding”.
The same measure, in the same setting: the entry for B2 is “no binding”; for B3 it is “no binding”.
On the same count and under the same terms, the result for B4 reads “no binding”; that for B5, “no binding”.
Turning to B6, the binding result is reported as “no binding”.
On to B7, for which the binding result was “no binding”.
As for B8, the binding result was “no binding”.
For B9, the binding result is recorded as “no binding”.
With B10, the binding result is “no binding”.
The same measure, in the same setting: the entry for B11 is “no binding”; for B12 it is “no binding”.
Regarding B13, the binding result is recorded as “no binding”.
With B14, the binding result is recorded as “no binding”.

The next test deals with T2, A1 domain of tenascin (TNC-A1), immobilized domain of Example 1 (UniProt P24821 1072-1162, limits assumed).
T2 construct: domain: A1; also called TNC-A1 domain
T2 sequence (looked up): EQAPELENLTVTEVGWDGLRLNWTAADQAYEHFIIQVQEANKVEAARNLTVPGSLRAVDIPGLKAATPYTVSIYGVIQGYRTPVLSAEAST
Description: SPR (BIACORE), TNC-A1 domain immobilized on the chip.
In the case of B15, the Kd (as a rule, the constant that tells how readily two partners part at equilibrium) amounted to 2.6 nM and the “increase of affinity attributed to bivalency (IgG against Fab)” value was 20 fold.
B16 gave a Kd of 50 nM.

A further test deals with T3, Human FAP ectodomain + poly-lys-tag + his6-tag (human, UniProt Q12884 27-760).
T3 construct: also called hu FAP
Nature of the test: SPR (ProteOn XPR36), purified Fab, monovalent binding.
On to B1, for which the Kd was 0.035 nM.
Regarding B2, the Kd was found to be 1.6 nM.
B3: the Kd was 0.2 nM.
Still for that read-out and setting: the result for B4 reads 0.619 nM.
Same read-out and setting: the result for B5 reads 0.377 nM; that for B6, 0.034 nM; that for B7, 0.16 nM.
As for B8, the Kd stood at 0.076 nM.
As to B9, the Kd is 0.157 nM.
On to B10, for which the Kd was found to be 0.301 nM.
Turning to B11, the dissociation constant (Kd) was 0.193 nM.
With B12, the Kd amounted to 0.243 nM.
Consider B13, for which the Kd is 0.69 nM.
With B14, the Kd was found to be 0.069 nM.

In another test the target is T4, Murine FAP ectodomain + poly-lys-tag + his6-tag (murine, UniProt P97321 27-761).
T4 construct: also called mu FAP
The test is described as above.
With B1, the Kd is 0.436 nM.
Still for that read-out and setting: the figure for B2 is 0.125 nM.
The same measure, in the same setting: the result for B3 reads 0.009 nM.
With B4, the Kd worked out at 8.3 nM.
Still for that read-out and setting: the result for B5 reads 3.8 nM; that for B6, 0.655 nM.
As for B7, the Kd is 3.7 nM.
Same read-out and setting: the result for B8 reads 2.6 nM.
B9: the Kd stood at 3.3 nM.
Same read-out and setting: the result for B10 reads 3.8 nM; that for B11, 3.4 nM; that for B12, 4.1 nM.
For the molecule B13, the Kd came out at 3.2 nM.
Regarding B14, the Kd came to 2.8 nM.

The next test concerns the target T5, Cynomolgus FAP (Cynomolgus).
T5 construct: construct not described; also called cyno FAP
The description is as above.
B1 showed a Kd of 0.023 nM.
Same read-out and setting: the result for B2 reads 0.99 nM; that for B6, 0.522 nM.

For a further test, the target named is T6, Human TNC-A2 + avi-tag + his6-tag (human, biotinylated in vivo at the avi-tag).
T6 construct: also called hu TNC A2; A2 domain of human tenascin
T6 chain: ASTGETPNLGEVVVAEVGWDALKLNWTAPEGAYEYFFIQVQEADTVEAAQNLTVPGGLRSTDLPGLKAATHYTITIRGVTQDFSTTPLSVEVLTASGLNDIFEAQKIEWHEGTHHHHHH
Described as above. The protocol: Selections were carried out against E. coli expressed human TNC A2 which was cloned upstream an avi-tag and 6×his-tag (see SEQ ID NO: 57 of Table 5). The antigen was biotinylated in vivo upon expression. Selections have been carried out in solution as described for the primary TNC A2 selections using decreasing concentrations of human TNC A2 ranging from 100 to 2 nM. After identification of affinity-matured clones by ELISA, secondary screenings were carried out using a ProteOn XPR36 biosensor (Biorad) and kinetic rate constants and affinities were determined analyzing affinity-purified Fab preparations on the same instrument.
For the molecule B17, the Kd stood at 0.29 nM.
The same measure, in the same setting: the figure for B18 is 0.191 nM; for B19 it is 0.81 nM.
Same read-out and setting: the result for B20 reads 0.056 nM.
Same read-out and setting: the result for B21 reads 0.497 nM; that for B22, 0.147 nM.

The target of another test is T3, Human FAP ectodomain + poly-lys-tag + …. Nature of the test: first affinity maturation campaign: phage selections, ELISA and BIACORE kinetic screening. For orientation: ELISA stands for enzyme-linked immunosorbent assay.
For B23, the binding result is “binds”.
With B24, the binding result was “binds”.
On to B25, for which the binding result was “binds”.

A further test has as its target T4, Murine FAP ectodomain + poly-lys-tag + …. The test is described as above.
Consider B23, for which the binding result is on record as “binds”.
Turning to B24, the binding result was “binds”.
Still for that read-out and setting: the entry for B25 is “binds”.
